Target: Cathepsin L (UniProt P07711)
Test: cell-based or functional assay

- CatL inhibition (residual activity on Z-FR-AMC after 2 min incubation with serpin, 1:5 protease:serpin): 95%
Substance: Wild Type SerpinB3 (from UniProt P29508 1-390)

— patent US20240350597A1, “PROTEASE INHIBITORS” (University College Dublin, priority 2023, published 2024)
